# In patent CN114989305A (BEIJING WISDOMAB BIOTECHNOLOGY CO LTD, dated 2022):
# Target: T1, HER2-His (Homo sapiens (Human), UniProt P04626 23-510)
# T1 construct: Recombinant protein made in HEK293 cells; also called 重组的HER2-His; 重组HER2胞外区D1D2D3部分
# Experiment: SPR (Biacore X100), antibody captured by anti-Fc on CM5 chip, HER2-His as analyte, single cycle
row,Kd,Binder
1,6.79 nM,BsAb7 (bispecific antibody) chain 1: QVQLVESGGGVVQPGGSLRLSCAASGFVLRVNTVSWYRQAPGKQRELVALITSESNEYYDDSVKGRFTISRDNAKNTIYLHMNSLKPEDTGVYFCNFITTWGQGTQVTVSSGGGGSGGGGSGGGGSQVQLVESGGGVVQPGGSLRLSCAASGFVLRVNTVSWYRQAPGKQRELVALITSESNEYYDDSVKGRFTISRDNAKNTIYLHMNSLKPEDTGVYFCNFITTWGQGTQVTVSSDKTHTCPPCPAPESTRGPSVFLFPPKPKDTLMISRTPEVTCVVVDVSHEDPEVKFNWYVDGVEVHNAKTKPREEQYNSTYRVVSVLTVLHQDWLNGKEYKCKVSNKALPAPIEKTISKAKGQPREPQVCTLPPSRDELTKNQVSLSCAVKGFYPSDIAVEWESNGQPENNYKTTPPVLDSDGSFFLVSKLTVDKSRWQQGNVFSCSVMHEALHNHYTQKSLSLSPGK chain 2: EVQLVESGGGLVQPGRSLRLSCAASGFTFNTYAMNWVRQAPGKGLEWVARIRSKYNNYATYYADSVKDRFTISRDDSKSIAYLQMNSLKTEDTAVYYCVRHGNFGNSYVSWFAYWGQGTLVTVSSASTKGPSVFPLAPSSKSTSGGTAALGCLVKDYFPEPVTVSWNSGALTSGVHTFPAVLQSSGLYSLSSVVTVPSSSLGTQTYICNVNHKPSNTKVDKKVEPKSCDKTHTCPPCPAPESTRGPSVFLFPPKPKDTLMISRTPEVTCVVVDVSHEDPEVKFNWYVDGVEVHNAKTKPREEQYNSTYRVVSVLTVLHQDWLNGKEYKCKVSNKALPAPIEKTISKAKGQPREPQVYTLPPCRDELTKNQVSLWCLVKGFYPSDIAVEWESNGQPENNYKTTPPVLDSDGSFFLYSKLTVDKSRWQQGNVFSCSVMHEALHNHYTQKSLSLSPGK chain 3: QTVVTQEPSLTVSPGGTVTLTCRSSTGAVTTSNYANWVQQKPGQAPRGLIGGTNKRAPGVPARFSGSLLGGKAALTLSGVQPEDEAEYFCALWYSNLWVFGGGTKLTVLGQPKAAPSVTLFPPSSEELQANKATLVCLISDFYPGAVTVAWKADSSPVKAGVETTTPSKQSNNKYAASSYLSLTPEQWKSHRSYSCQVTHEGSTVEKTVAPTECS
2,9.69 nM,BsAb8 (bispecific antibody) chain 1: EVQLVESGGGLVQPGGSLRLSCAASGRSFSSFQMGWFRQAPGKEREFVAASGWSGGPTYYWDSVIGRFTISTDNSKNTLYLQMNSLRAEDTAVYYCYEDRVLSGRPVRYWGQGTLVTVSSGGGGSGGGGSGGGGSEVQLVESGGGLVQPGGSLRLSCAASGRSFSSFQMGWFRQAPGKEREFVAASGWSGGPTYYWDSVIGRFTISTDNSKNTLYLQMNSLRAEDTAVYYCYEDRVLSGRPVRYWGQGTLVTVSSDKTHTCPPCPAPESTRGPSVFLFPPKPKDTLMISRTPEVTCVVVDVSHEDPEVKFNWYVDGVEVHNAKTKPREEQYNSTYRVVSVLTVLHQDWLNGKEYKCKVSNKALPAPIEKTISKAKGQPREPQVCTLPPSRDELTKNQVSLSCAVKGFYPSDIAVEWESNGQPENNYKTTPPVLDSDGSFFLVSKLTVDKSRWQQGNVFSCSVMHEALHNHYTQKSLSLSPGK chain 2: EVQLVESGGGLVQPGRSLRLSCAASGFTFNTYAMNWVRQAPGKGLEWVARIRSKYNNYATYYADSVKDRFTISRDDSKSIAYLQMNSLKTEDTAVYYCVRHGNFGNSYVSWFAYWGQGTLVTVSSASTKGPSVFPLAPSSKSTSGGTAALGCLVKDYFPEPVTVSWNSGALTSGVHTFPAVLQSSGLYSLSSVVTVPSSSLGTQTYICNVNHKPSNTKVDKKVEPKSCDKTHTCPPCPAPESTRGPSVFLFPPKPKDTLMISRTPEVTCVVVDVSHEDPEVKFNWYVDGVEVHNAKTKPREEQYNSTYRVVSVLTVLHQDWLNGKEYKCKVSNKALPAPIEKTISKAKGQPREPQVYTLPPCRDELTKNQVSLWCLVKGFYPSDIAVEWESNGQPENNYKTTPPVLDSDGSFFLYSKLTVDKSRWQQGNVFSCSVMHEALHNHYTQKSLSLSPGK chain 3: QTVVTQEPSLTVSPGGTVTLTCRSSTGAVTTSNYANWVQQKPGQAPRGLIGGTNKRAPGVPARFSGSLLGGKAALTLSGVQPEDEAEYFCALWYSNLWVFGGGTKLTVLGQPKAAPSVTLFPPSSEELQANKATLVCLISDFYPGAVTVAWKADSSPVKAGVETTTPSKQSNNKYAASSYLSLTPEQWKSHRSYSCQVTHEGSTVEKTVAPTECS
3,5.31 nM,"MAb2 (antibody, V domains shown, The constant region of MAb2 is not known (human IgG1 or an IgG1 variant); also called 对照单克隆抗体; C6G9+L1A7 (inferred)) VH: EVQLVESGGGLVQPGGSLRLSCAASGFTFNDYTMDWVRQAPGKGLEWVADVNPNSGSSIYNERFKGRFTLSVDRSKNTLYLQMNSLRAEDTAVYYCARNLGPSFYFDYWGQGTLVTVSS VL: DIQMTQSPSSLSASVGDRVTITCRASQNINNWLTWYQQKPGKAPKLLIYAASSRQTGVPSRFSGSGSGTDFTLTISSLQPEDFATYYCQQYAKLPVTFGQGTKVEIK"
